What was measured:
[1] = Bolus ID vs SC insulin in diabetic Yucatan Mini swine, serum insulin levels; assay type: in vivo; conditions: for PK profiles for regular and fast-acting insulin by the ID route / uptake by ID route compared with Lispro given by the traditional SC route: SS3_34
Description: Lilly Lispro is regarded as fast acting insulin, and has a slightly altered protein structure relative to native human insulin. Hoechst regular insulin, maintains the native human insulin protein structure that is chemically similar, but has slower uptake than Lispro when administered by the traditional SC route. Both insulin types were administered in bolus via the ID route to determine if any differences in uptake would be discernable by this route. 5 U of either insulin type were administered to the ID space using dermal access microdevice design SS3—34.
Thus, 5 U of Lilly Lispro fast-acting insulin was administered using dermal access design SS3—34. Additional microdevices of the same needle array configuration were fabricated whereby exposed needle lengths of the microdevice array, were lengthened to include arrays with needles lengths of 2 and 3 mm. The average total dermal thickness in Yucatan Mini swine ranges from 1.5-2.5 mm. Therefore insulin deposition is expected to be into the dermis, approximately at the dermal/SC interface, and below the dermis and within the SC for 1 mm, 2 mm, and 3 mm length needles respectively. Bolus insulin administration was as described in Example 6.2.
Bolus delivery of Lantus long-acting insulin was delivered via the ID route. Lantus is an insulin solution that forms microprecipitates at the administration site upon injection. […] Lantus insulin (10 U dose, 100 μL) was administered to diabetic Yucatan Mini pigs using the dermal access design SS3—34 and by the standard SC method as previously described. […] More importantly this supports the fact that the biological clearance mechanism in the body is not appreciably changed by the administration route, nor is the way in which that the drug substance is utilized. This is extremely important for drugs compounds that have a long circulating half-life (examples would be large soluble receptor compounds or other antibodies for cancer treatment, or chemically modified species such as PEGylated drugs).

[2] = ID vs SC infusion of PTH, weight normalized PTH plasma levels; assay type: in vivo
Description: An ID administration experiment was conducted using a peptide drug entity: human parathyroid hormone 1-34 (PTH). […] Control SC infusion was through a standard 31-gauge needle inserted into the SC space lateral to the skin using a “pinch-up” technique. ID infusion was through dermal access microdevice design SSB1—30 (a stainless steel 30-gauge needle bent at the tip at a 90° angle such that the available length for skin penetration was 1-2 mm). The needle outlet (the tip of the needle) was at a depth of 1.7-2.0 mm in the skin when the needle was inserted. A 0.64 mg/mL PTH solution was infused at a rate of 75 μL/hr. Flow rate was controlled via a Harvard syringe pump.

[3] = Slow-infusion ID vs SC insulin delivery in swine, serum insulin pharmacokinetics; assay type: in vivo
Description: Pharmacokinetic parameters of the delivered substances in accordance with the methods of the invention may be determined using methods known to one skilled in the art. An exemplary pharmacokinetic analysis of infusion data of a substance, e.g., insulin, delivered in accordance with the methods of the invention is carried out as follows. Stepwise nonlinear least-squares regression is used to analyze the insulin concentration-time data from each individual animal. Initially, an empirical biexponential equation is fit to the insulin concentration-time data for the negative control condition. This analysis assumes first-order release of residual insulin, and recovers parameters for the first-order rate constant for release, the residual insulin concentration at the release site, a lag time for release, and a first-order rate constant for elimination of insulin from the systemic circulation. The parameters recovered in this phase of the analysis are of no intrinsic importance, but merely account for the fraction of circulating insulin derived from endogenous sources.
The second step of the analysis involves fitting an explicit compartmental model to the insulin concentration-time data during and after subcutaneous or intradermal infusion. The scheme upon which the mathematical model is based is shown in the upper part of FIG. 1. Infusion of insulin proceeds from t=−0 to t=240-min; after a lag-time (tlag,2) absorption from the infusion site is mediated by a first-order process governed by the absorption rate constant ka. Insulin absorbes into the systemic circulation, distributes into an apparent volume V contaminated by an unknown fractional bioavailability F, and is eliminated according to a first-order rate constant K. The fitting routine recovered estimates of tlag,2, ka, V/F, and K; parameters associated with the disposition of endogenous insulin (CR, tlag,1, kR), which are recovered in the first step of the analysis, are treated as constants. Parameter estimates are reported as mean±SD. The significance of differences in specific parameters between the two different modes of insulin administration (subcutaneous versus intradermal infusion) are assessed with the paired Student's t-test.

blood glucose [4] = assay: Slow-infusion ID insulin delivery in swine, blood glucose response; conditions: ID infusion 2 U/hr, relative to negative controls and SC infusion
Description: The distal end of the microneedle was placed into the plastic catheter and cemented in place with epoxy resin to form a depth-limiting hub. The needle outlet was positioned approximately 1 mm beyond the epoxy hub, thus limiting penetration of the needle outlet into the skin to approximately 1 mm, which corresponds to the depth of the intradermal space in swine. The catheter was attached to a MiniMed 507 insulin pump for control of fluid delivery. The distal end of the microneedle was placed into the plastic catheter and cemented in place with epoxy resin to form a death-limiting hub. The needle outlet was positioned approximately 1 mm beyond the epoxy hub, thus limiting penetration of the needle outlet into the skin to approximately 1 mm, which corresponds to the depth of the intradermal space in swine. […] The catheter was connected to an-external insulin infusion pump (MiniMed 507) via the integral Luer connection at the catheter outlet. The pump was filled with Humalog™ (Lispro) insulin (Eli Lilly, Indianapolis, Ind.) and the catheter and microneedle were primed with insulin according to the manufacturer's instructions. […] Blood samples were periodically withdrawn and analyzed for serum insulin concentration and blood glucose values.

blood glucose [5] = assay: Bolus ID vs SC insulin in diabetic Yucatan Mini swine, blood glucose; conditions: bolus 10 U, 100 μL
Description: Bolus delivery of Lilly Lispro fast acting insulin was performed using ID and SC bolus administration. The ID injection microdevice was dermal access array design SS3—34.10 international insulin units (U) corresponding to 100 μL volume respectively, were administered to diabetic Yucatan Minis swine. Test animals had been previously been rendered diabetic by chemical ablation of pancreatic islet cells, and were no longer able to secrete insulin. Test animals received their insulin injection either via the microneedle array or via a standard 30 G×½ in. needle inserted laterally into the SC tissue space. Circulating serum insulin levels were detected using a commercial chemiluminescent assay kit (Immulite, Los Angeles, Calif.) and blood glucose values were determined using blood glucose strips. ID injections were accomplished via hand pressure using an analytical microsyringe and were administered over approximately 60 sec.

[6] = Bolus ID delivery of GCSF to Yucatan minipigs, plasma GCSF by ELISA; assay type: in vivo; conditions: bolus ID relative to SC
Description: (§1) Bolus ID delivery of human granulocyte colony stimulating factor (GCSF) (Neupogen) was administered via dermal access microdevice designs SS3—34B (array) or SS1—34 (single needle) to Yucatan minipigs. Delivery rate was controlled via a Harvard syringe pump and was administered over a 1-2.5 min period. […] Administration via IV and SC delivery was performed as controls.

[7] = system: white blood cell (WBC) counts; assay: White blood cell expansion after GCSF administration; assay type: in vivo, Yucatan minipigs; conditions: ID, SC and IV delivery vs negative control
Description: as §1

[8] = 4 hour infusion, 0.64 mg/mL at 75 μL/hr
[9] = bolus 10 U, 100 μL, SS3_34 array vs SC needle

## Hoechst regular insulin: regular insulin that maintains the native human insulin protein structure
[1]; bolus 5 U
  PK profiles for regular and fast-acting insulin by the ID route: essentially identical
  uptake by ID route compared with Lispro given by the traditional SC route: faster uptake

## Lantus
[1]; bolus 10 U dose, 100 μL
  "burst" immediately after the ID insulin delivery, relative to SC: slightly higher

## PTH: peptide drug entity: human parathyroid hormone 1-34
[2]; 2 hour clearance after 4 hour infusion
  plasma level following termination of infusion, ID: rapid decrease
[2]; [8]
  area under the curve (AUC) of weight normalized plasma level, ID vs SC: larger area under the curve
  peak values at earlier sampling timepoints (15 and 30 min), ID vs SC: higher peak values

## Lispro
[3]; ID infusion, 2 U/hr for 4 hr
  lag time prior to absorption (tlag): 0.88 min
  rate of uptake from the administration site, ka: 0.0666 min⁻¹
[3]; ID relative to SC infusion
  bioavailability, ID relative to SC administration: approximately 1.3 fold
  increase of rate of uptake from the administration site, ID vs SC: approximately 3 fold
[3]; SC infusion
  lag time prior to absorption (tlag): 13.6 min
  rate of uptake from the administration site, ka: 0.0225 min⁻¹
[1]; bolus 5 U
  PK profiles for regular and fast-acting insulin by the ID route: essentially identical
  uptake by ID route compared with Lispro given by the traditional SC route: faster uptake
[1]; bolus 5 U, needle lengths 1, 2 and 3 mm
  PK profile as microneedle length is increased: more closely resemble SC administration
[1]; [9]
  maximum concentration obtained (Cmax), ID vs SC: higher
  time to maximum concentration (Tmax), ID vs SC: shorter
Blood glucose [4]
  blood glucose drop: improved relative to conventional SC infusion
Blood glucose [5]
  decrease in blood glucose (BG), ID vs SC: faster and greater changes in BG

B1: GCSF: human granulocyte colony stimulating factor (GCSF) (Neupogen) (protein, chains of the INN, looked up)
chain: MTPLGPASSLPQSFLLKCLEQVRKIQGDGAALQEKLCATYKLCHPEELVLLGHSLGIPWAPLSSCPSQALQLAGCLSQLHSGLFLYQGLLQALEGISPELGPTLDTLQLDVADFATTIWQQMEELGMAPALQPTQGAMPAFASAFQRRAGGVLVASHLQSFLEVSYRVLRHLAQP
[6]
  bioavailability increase (AUC), ID vs SC: approximately 2 fold
[7]
  white blood cell expansion (PD outcome): approximately equal PD outcomes
